Source: patent publication US20260116937A1

Key:
C3b (human) [1] = target: C3b (human) (UniProt P01024); assay: ELISA
C3b (human) [2] = target: C3b (human) (UniProt P01024); assay: ELISA; culture supernatant

C3b (human), sequence (P01024 749-1663, chain 1 of 2): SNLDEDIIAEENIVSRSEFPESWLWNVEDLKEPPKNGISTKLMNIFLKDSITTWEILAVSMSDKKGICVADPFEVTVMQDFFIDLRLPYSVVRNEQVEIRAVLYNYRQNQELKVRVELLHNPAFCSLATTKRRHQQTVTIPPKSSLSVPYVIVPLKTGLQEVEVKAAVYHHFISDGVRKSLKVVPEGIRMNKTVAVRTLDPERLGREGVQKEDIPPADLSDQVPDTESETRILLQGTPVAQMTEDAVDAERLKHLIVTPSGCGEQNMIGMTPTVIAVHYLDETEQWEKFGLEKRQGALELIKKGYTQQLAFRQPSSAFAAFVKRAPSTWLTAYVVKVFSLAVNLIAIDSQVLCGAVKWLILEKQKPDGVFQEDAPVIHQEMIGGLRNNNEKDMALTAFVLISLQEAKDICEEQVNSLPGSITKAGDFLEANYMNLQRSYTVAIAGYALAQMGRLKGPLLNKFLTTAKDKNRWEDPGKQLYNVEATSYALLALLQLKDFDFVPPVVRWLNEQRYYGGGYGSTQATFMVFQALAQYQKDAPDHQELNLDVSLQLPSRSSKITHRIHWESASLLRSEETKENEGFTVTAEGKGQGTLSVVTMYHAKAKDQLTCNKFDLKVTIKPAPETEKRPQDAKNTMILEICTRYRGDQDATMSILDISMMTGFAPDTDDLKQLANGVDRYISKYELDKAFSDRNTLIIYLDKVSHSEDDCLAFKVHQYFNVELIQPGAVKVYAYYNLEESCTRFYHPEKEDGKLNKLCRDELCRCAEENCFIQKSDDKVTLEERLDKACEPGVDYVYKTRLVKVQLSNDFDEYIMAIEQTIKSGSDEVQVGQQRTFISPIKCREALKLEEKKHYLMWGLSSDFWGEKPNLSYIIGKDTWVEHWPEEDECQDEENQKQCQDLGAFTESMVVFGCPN
C3b (human), sequence (P01024 23-667, chain 2 of 2): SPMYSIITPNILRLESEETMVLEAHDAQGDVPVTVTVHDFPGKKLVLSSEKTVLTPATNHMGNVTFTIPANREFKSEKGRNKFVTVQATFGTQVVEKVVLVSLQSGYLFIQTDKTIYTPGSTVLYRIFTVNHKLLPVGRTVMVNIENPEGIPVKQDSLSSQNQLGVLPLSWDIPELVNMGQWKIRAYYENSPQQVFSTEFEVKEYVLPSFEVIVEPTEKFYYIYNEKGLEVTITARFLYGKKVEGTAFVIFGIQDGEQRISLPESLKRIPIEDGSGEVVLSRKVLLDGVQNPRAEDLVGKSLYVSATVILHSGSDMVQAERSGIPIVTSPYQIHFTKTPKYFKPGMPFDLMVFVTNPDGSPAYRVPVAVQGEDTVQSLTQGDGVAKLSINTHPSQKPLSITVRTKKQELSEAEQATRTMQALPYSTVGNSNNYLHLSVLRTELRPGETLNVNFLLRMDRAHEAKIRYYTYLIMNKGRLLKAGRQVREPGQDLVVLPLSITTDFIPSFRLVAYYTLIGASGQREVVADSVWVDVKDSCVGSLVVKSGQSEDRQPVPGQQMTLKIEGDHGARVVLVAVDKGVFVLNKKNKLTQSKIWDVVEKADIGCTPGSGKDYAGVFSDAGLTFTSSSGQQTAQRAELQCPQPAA

Substance: Factor H-like protein 1 (FHL-1) (from UniProt P08603 19-445)
- EC50 (C3b (human) [1]): 7.1 nM
- EC50 (C3b (human) [2]): 6.9 nM
